This note sets out measurements from paper doi:10.1101/2023.09.20.558696.

What all share (assay): co-IP
The target in experiment [1] is LtPP1-8e D290A, Pd-tagged (L. tarentolae).
Experiment [2] deals with LtPP1-8e I360A, Pd-tagged (L. tarentolae).
Experiment [3] addresses LtPP1-8e 109-114A, Pd-tagged (L. tarentolae).
The target in experiment [4] is LtPP1-8e F305A, Pd-tagged (L. tarentolae).
Experiment [5] deals with LtPP1-8e CΔ23, Pd-tagged (L. tarentolae).
In experiment [6] the target is LtPP1-8e D292A, Pd-tagged (L. tarentolae).
The target in experiment [7] is LtPP1-8e CΔ11, Pd-tagged (L. tarentolae).
In experiment [8] the target is LtPP1-8e 310DHK312 to alanine, Pd-tagged (L. tarentolae).
Experiment [9] has as its target LtPP1-8e 359-362A, Pd-tagged (L. tarentolae).
The target in experiment [10] is LtPP1-8e I217A, Pd-tagged (L. tarentolae).
The target in experiment [11] is LtPP1-8e 109-134Δ, Pd-tagged (L. tarentolae).
Experiment [12] deals with LtPP1-8e 263-265A, Pd-tagged (L. tarentolae).
Experiment [13] addresses LtPP1-8e 260LP261 to alanine, Pd-tagged (L. tarentolae).
For experiment [14], the target named is LtPP1-8e 354-358A, Pd-tagged (L. tarentolae).
The target of experiment [15] is LtPNUTS D101A, Pd-tagged (L. tarentolae).
For experiment [16], the target named is LtPNUTS R94A, Pd-tagged (L. tarentolae).
The target in experiment [17] is LtPNUTS V97A, Pd-tagged (L. tarentolae).
For experiment [18], the target named is LtPNUTS L111A, Pd-tagged (L. tarentolae).

In the case of “LtPNUTS, endogenously HA-tagged (natural protein)”, the reduction of co-IP against WT PP1-8e was determined as 50% in experiment [1]; 80% in experiment [2]; 80% in experiment [3]; 80% in [4]; 60% in experiment [6]; 30% in [7]. For the same substance, the reduction of co-IP against WT PP1-8e in experiment [9] came to 80%; in experiment [10], 50%; in experiment [11] it was 80%; in [12], 90%; in experiment [13], 80%; in [14] it was 50%. For the same substance, the loss of co-IP against WT PP1-8e in experiment [5] stood at 80%. This substance displayed a decrease of co-IP against WT PP1-8e in experiment [8] of 20%.
With “LtPP1-8e, endogenously HA-tagged (enzyme)”, the decrease of co-IP against WT PNUTS in [15] was 80%. The values for the reduction of co-IP against WT PNUTS in experiment [16] and in experiment [18] were 50% and 80%, respectively. In addition, the fold decrease of co-IP against WT PNUTS in experiment [17] came to 5 fold.
